# Test results: the DeepSol protein solubility set
# Experiment: soluble on expression in E. coli; label from the status in PepcDB or PDB records
row,Sequence,soluble on expression in E. coli
1,MFILSLLHDTVAIQPHQLSSDQQIVIKKRLNERLANKIIPDLGLCICVYDINEIGDSYILPGEGDCRARVKFRMIVFRPFVDEVIEAKVIGSSRQGLCLTIQFFEDIFVPAEKLPEPHVFEEEGQVWYWEYAQEDGEPPAKLYMDPGKIVRFRVTEIIFKDLKPELTHEERKTEKSMEIKGTMASTGLGCIGWWAAEDEDDEAVEDEQDEQEEVIQPKEEIRQPQEEVRQPVKIKEEPV,not soluble
2,MFKHKKNEARNYSKMRESRYEYGTILKAHAAFVEIVTRPAPHRDNLPFNMSTLSVLIETSSCSWGMLASAHGDRTIGIILRAIVSFCNAHLGQSANNQLLVFAYGRNVDNKMIYSSTRCEDRNASFLVVKRLRELLSSDALTNDATIGAPLGPALAHAFCHMKKDSRVVTADPCDDSLGPQTTSEQSETASEKATNRAVVISITPIMGSEHGSLMNLFFSAAKQSICVDVVSMGDDFTGGILQQAADITGGSFLHAKKPQTLLKILMTNMLTDPTHRAVFSKLSHNSVDYRASCACHHQLVSSGWVCSICLSVLCQYTPICKVCKAAFTIANLPIKPNRKRAIRN,not soluble
3,MFKKIATILGSTLFGTVLFAKVKEKRSYKSFLQEKMIRISGMKKTFESIDDAKKALNETKYQTAGKYNGTTYEFKHKVQIRDYYGSLVYVVNDHGLPDQRTVLYVHGGAWFQDPLENHFEYLDLLVDALDARVIMPVYPKIPHRDYRTTFELLTKIYKRLLTKIDEPENLVIIGDSAGGQIALAFAQMLKKEQLSQPGHIVLISPVLDATFKNPEARKYEKEDPMLGIDGSKYLVELWAGDAPLDDYKMSPMNGDLEGLGHITLTVGTKETLYPDAVKFSHMLNDKGIKHQFIPGYNLFHIYPLFPIPERQRFLEQLKKIIVTKEL,not soluble
4,MFLAQPRGFCAGVVRAIEIVERALEKYGPPVYVRHEIVHNKYVVESLKAKGAIFVEELSEVPPKAVTVFSAHGVARSIEEEAAARDLPVLNATCPLVTKVHNQGKRYTSKGRTLILIGHAGHPEVEGTMGQVPGPVLLVQNLDDVAALTLPPETPVAYITQTTLSVDDTKDIIVALSKKFHDIEGPDTRDICYATQNRQSAVRQMSKLVDLILVVGANNSSNSNRLREIGTEAGIPSYLIADGSELDPAWLDGKKAVGITAGASAPEVLVDDVIEALRRIVPVTVSVLPGREENIEFVLPAELATALEHHHHHH,not soluble
5,MFLEECKTHFNTDCLYELLGVKKDCDEKALKKGYYRQSMRWHPDKSNLVEEDMQTYTTKFQLLNKAYQILSDEEKRKIYDETGSVDDEAGELNEDALKAWRMIFKKVTKEDIDSFMKTYQGSREQKDELVVHYEKFNGDIAKIREYAIGFDGVEELKEALDKLIDDGEIEKTKKYETSTSDKKMKAYKRKAEKEAIEVENMTQNNSDLVALIQGRQKERGTSFLDSLAAKYAPSSSKKAKRQ,not soluble
6,MFLTRSEYDRGVNTFSPEGRLFQVEYAIEAVKLGSTSIGIKTSEGVLLAAEKRSTSKLMVNDAIEKISKVDQHIGVTFAGLIADSRTLVERAQIEAQNFWFTYNRKIRVEDVTQSVANLALQFGDDDVKASMSRPFGVAMLFAGVDQEGAKLFHLDPSGTFIDCKAKSIGAASDGAEQNLKEQYHDALTIKEGLKMALAILKQVMEEKLNSANVEVVVIKPTVDAKGRPIGEFTRVSNEELDQVITSL,not soluble
7,MFNVSALAAATPSIASVSSVASPSEQHGLSTSVGVGVNDTTSRTGDGGAASSASSASAAPQQQSQSALHNKLEAKWDTLLPTDTNLQCSTWPDSIPLLAGYSATPTFSFDPCTYGSYDPSAYFASNGIAGSMYTLPDQFPRSENDMLDNSNTSNGNKSDKDGIKLEDEDEILEDEENDEEDDGTGKRKKRKRRVLFTKAQTYELERRFRSQKYLSAPEREALAMQIRLTPTQVKIWFQNHRYKTKKSHTDKPINAALLTTMPNAFSSQSTAASFPTRAMPIPMLVRDSSARSSDISSTSPYTVAFGSANSGYLPTPSAYLPATSGYFSNGPSAASSYMTNTQWWPS,not soluble
8,MFPERLRALRRGQKMTLAQLAAALNQMPTADKTTRQNTAAQIGNWERDLRTPSYLEVRKLAEFFNVTTDYLSGKSDQEEYDLGRIFLSGKPLTFNQEQLSSEDRYELFQLMDGYLHGRQHRVSTDATGQEELDLHFDD,not soluble
9,MFPIHYQFSIIHYPLKKEMKLNLKNPIVFFDLETTGTNINTDRIVEICYLKVYPNGNEETKTMRINPEMHIPEASSAVHGIYDADVADCPTFKEVAKNVARDIEGCDLAGFNSNRFDIPVLAEEFLRAGVDIDMTKRKFVDVQVIFHKMEQRTLSAAYKFYCEKSLEDAHTAEADTRATYEVLKAQLDRYPDLQNDIAFLAEYSSFTKNVDFAGRMVYDDNGVEVFNFGKYKGMSVAEVLKKDPGYYSWILNSDFTLNTKAVLTKIRLREMSNLITK,soluble
10,MFPKNAWYVACTPDELAGKPLGRRICDEPMVFYRGEDGRVAALEDFCPHRGAPLSLGFVEDGVLVCGYHGLAMGEDGRTRAMPGQRVRGFPCIRRFPVQERHGFVWVWPGAEEQADDALIPRLEWAESPDWAYGGGLYHIHCDYRLMIDNLMDLTHETYVHASSIGQKEIDEAAPTTRVEGDEVITSRHMQNVMAPPFWRMALRGNGLADDVAVDRWQICRFTPPSHVLIEVGVAHAGHGGYQAPAERKAASIVVDFITPESATSIWYFWGMARNFQAHDQALTESIREGQGKIFGEDLEMLESQQRNLLRHPRRDLLKLNIDAGGVQARRIIERLLADER,not soluble
11,MFQDVLVITVAVGRGGDGAVSFRREKFVPKGGPDGGDGGRGGSVYLRARGSVDSLSRLSKRTYKAEDGEHGRGSQQHGRGGEDLVIEVPRGTRVFDADTGELLADLTEEGQTVLVARGGAGGRGNMHFVSPTRQAPRFAEAGEEGEKRRLRLELMLIADVGLVGYPNAGKSSLLAAMTRAHPKIAPYPFTTLSPNLGVVEVSEEERFTLADIPGIIEGASEGKGLGLEFLRHIAGTRVLLYVLDAADDPFKTLKTLRKKVWAYDPGLLGRPSLVALNKVDLLEKEAVKALADALAREGLAVLPVSALTGAGLPALKEALHALVRSTPPPEMPKPVPRKEVQAGVEVVPVAEGVYEVRAPEVERYLARIKGDLMEAAGYLQEVFRRQGVEAALRAKGVRAGDLVRIGGLEFEYIPEV,soluble
12,MFQIIMTSTPKYSIILPTYNEKENLPICIWLIENYLKEVSHEVIIVDDASPDGTQGIAKLLQKEYGDDKILIKPRVGKLGLGTAYSHGLSFARGEFIILMDADLSHHPKFIPEMIALQHKYKLDIVTGTRYKDGGGVSGWDLKRKTISKGANFLAQFLLNPGVSDLTGSFRLYKRDILSKLIAESVSKGYVFQMEMMFRAKKSGYRIGEVPISFVDRFFGESKLGSQEIVDYAKGLLYLFAFVW,not soluble
13,MFQQQKDWETRENAFAAFTMGPLTDFWRQRDEAEFTGVDDIPVRFVRFRAQHHDRVVVICPGRIESYVKYAELAYDLFHLGFDVLIIDHRGQGRSGRLLADPHLGHVNRFNDYVDDLAAFWQQEVQPGPWRKRYILAHSMGGAISTLFLQRHPGVCDAIALTAPMFGIVIRMPSFMARQILNWAEAHPRFRDGYAIGTGRWRALPFAINVLTHSRQRYRRNLRFYADDPTIRVGGPTYHWVRESILAGEQVLAGAGDDATPTLLLQAEEERVVDNRIHDRFCELRTAAGHPVEGGRPLVIKGAYHEILFEKDAMRSVALHAIVDFFNRHNSPSGNRSTEV,soluble
14,MFQQQKDWETRENAFAAFTMGPLTDFWRQRDEAEFTGVDDIPVRFVRFRAQHHDRVVVICPGRIESYVKYAELAYDLFHLGFDVLIIDHRGQGRSGRLLADPHLGHVNRFNDYVDDLAAFWQQEVQPGPWRKRYILAHSMGGAISTLFLQRHPGVCDAIALTAPMFGIVIRMPSFMARQILNWAEAHPRFRDGYAIGTGRWRALPFAINVLTHSRQRYRRNLRFYADDPTIRVGGPTYHWVRESILAGEQVLAGAGDDATQTLLLQAEEERVVDNRMHDRFCELRTAAGHPVEGGRPLVIKGAYHEILFEKDAMRSVALHAIVDFFNRHNSPSGNRSTEV,not soluble
15,MFREESRSVPVEEGEVYDVTIQDIARQGDGIARIEGFVIFVPGTKVGDEVRIKVERVLPKFAFASVVE,soluble
16,MFRRARPLRKTTRINGLERNGLKRSGRGWNAPGADVLARHCPLLPGRADAIGRGRLIVATWPKSAAKQRQNVPPARSRTRWRSMSSCHRSGPQKRGRDSGAVTAVTGAPNGQATAFVSLNDEVDAVAAAANLWVRAKSPLHGHAEHLRCEARLATFGARRQRQRVRGRARPECPRRRRSAMADMPPSAP,not soluble
17,MFRVLHLADLHLGYRPDLPAPVREEVYRARNRVLQAAVDLALDPRQGISLVLIAGDLFDNHRPEASLVEETIRQLTRLEAAGIQVITVPGNHDEITYNDAVYRREAGRWPGLLVTDPMPAKVATLKVKGDTCHLMAMAYTGGVTRVDGPLKAFPPAEGEGVNLAVFHGSLDWDGGERSLPLDGEALAAAGYDYIALGHIHRGGQRRLGRGLAVYAGMVAGKGFADPGTGSWTIVTLGDGPARVEQVPARVTPWRLVDLDVTAFQEPEELETAVRDALDPLEHHHHHH,not soluble
18,MFSIFMRIPDTAQVDAVFSGAYASIEQGLCYDEVNDWENTLAMYEKGLNLIVEGEKMKNARKSEMWKMLQESKSSVQHRINVLKKEGPKQPTPKKIKEAEESVENEKEAIRMQLDSFGSQEADLIYFLPEGVQLFTIDGEKTTAPTAPTSLQILRFPQPTDGGASSDTLAFMQVGPWAYPLMGAKTPVLRNEFGAYLVANPTPENPNMTVAILLSSDIERRLIEELHIVLREFTDFKEQAEPSTELSKEEKNRISTTISNFLIKGGQKIAWGVETTTVRVISRVEDNGEQYRTTLIATDKPMQVSPVIKGSVVYMHKGTKTVAKCTRYLLDKIGDMGVSMGKKLADSAQRRFGDGKSGGLVSGTIEILGGGITGVATVWMSLEDGSRHLCRSIANQTVQNVKLKYGDDASDTTHHALFAAGHGTLAAAQLWDLGPRSVAGRMARKAGIQMVSDLHHSRKGSRLDQEVPALELKKAV,not soluble
19,MFSVRRYRHKRNSLNIDTREITLEPADNARLLSLCGPFDDNIKQLERRLGIEINRRDNHFKLTGRPICVTAATDILRSLYVDTAPMRGQTQDIEPEQIHLAIKEARVLEQSAESVPDYGKAINIKTKRGVIKPRTPNQAQYIANILDHDITFGVGPAGTGKTYLAVAAAVDALERQEIRRILLTRPAVEAGEKLGFLPGDLSQKVDPYLRPLYDALFEMLGFEKVEKLIERNVIEVAPLAYMRGRTLNDAFIILDESQNTTIEQMKMFLTRIGFNSKAVITGDVTQIDLPRNTKSGLRHAIEVLAEVDEISFNFFHSEDVVRHPVVARIVNAYEAWEEAEQKRKAALAAERKREAQEQEQK,not soluble
20,MFVRICAMFGFVSDLLTAAVSSLDELLQDTPAHQIILGTAALYFLYNQYHNPSISRWYRSRNNASMKQRIIDSAYALAKNLPGVNQIIEKELNKELSSTREKLRIQRSGMTLREEIPEEGLSPQDILSAFDVDVEKCHFDFLSVTNDSPEREFLVERGDGKDSGALYAIHPKELTELLKEVYGATALTNPLHDKWPRINAMQAEVIRWCQNLFHGSKECYGLLTHGGTTSIIEAMAAYVIRARAKGIDYPEIVVPETAHAAFKKAAELTGAILITVPVDKKTGAVNPKVMSSYITRNTAVIVGSAPSFMNGIHDPVSELGQLAKKKNVPFHVDACLGGFLTAFLDTSSEPMDFRVPGVTSISADLHKYGCCPKGTSVCLFSEDSPALSVYAALNWSGGLYATPGILDGSTSGARVAEVYATLSYYGKNKYQEIAKSIITLRNAIQKELTTLLEEGNGLTSEDIYVYGNPQWSILGFRSNTCNAHFIADELEKRGWKLNLLQNPDGFHLCLTHVHTLVKGFETQFIKDLREAVIDVKNYPPGKKPSGNVKVYGAVGMMPIELQREICKQYQKARLNYTSASPGSLRIFTNVPVEEDEGLRNRKTEKYKV,not soluble
21,MFVRSLFLALLLATIVAADIDFSTCARMDVPILKKAAQGLCITSCSMQNCGTGSCKKRSGRPTCVCYRCANGGGDIPLGALIKRG,not soluble
